{"source": "patent US20170097353A1", "about": "“Polymer Viral Compositions” (The Regents of the University of California, priority 2015, published 2017)", "key": {"PSMA on LNCaP cells": {"target": "T1, PSMA on LNCaP cells (Homo sapiens, UniProt Q04609)", "T1 construct": "endogenous in cells; host or cells: LNCaP (also LNCaP CSS), glutaraldehyde-fixed on Maxisorp plates", "T1 sequence (Q04609 whole entry)": "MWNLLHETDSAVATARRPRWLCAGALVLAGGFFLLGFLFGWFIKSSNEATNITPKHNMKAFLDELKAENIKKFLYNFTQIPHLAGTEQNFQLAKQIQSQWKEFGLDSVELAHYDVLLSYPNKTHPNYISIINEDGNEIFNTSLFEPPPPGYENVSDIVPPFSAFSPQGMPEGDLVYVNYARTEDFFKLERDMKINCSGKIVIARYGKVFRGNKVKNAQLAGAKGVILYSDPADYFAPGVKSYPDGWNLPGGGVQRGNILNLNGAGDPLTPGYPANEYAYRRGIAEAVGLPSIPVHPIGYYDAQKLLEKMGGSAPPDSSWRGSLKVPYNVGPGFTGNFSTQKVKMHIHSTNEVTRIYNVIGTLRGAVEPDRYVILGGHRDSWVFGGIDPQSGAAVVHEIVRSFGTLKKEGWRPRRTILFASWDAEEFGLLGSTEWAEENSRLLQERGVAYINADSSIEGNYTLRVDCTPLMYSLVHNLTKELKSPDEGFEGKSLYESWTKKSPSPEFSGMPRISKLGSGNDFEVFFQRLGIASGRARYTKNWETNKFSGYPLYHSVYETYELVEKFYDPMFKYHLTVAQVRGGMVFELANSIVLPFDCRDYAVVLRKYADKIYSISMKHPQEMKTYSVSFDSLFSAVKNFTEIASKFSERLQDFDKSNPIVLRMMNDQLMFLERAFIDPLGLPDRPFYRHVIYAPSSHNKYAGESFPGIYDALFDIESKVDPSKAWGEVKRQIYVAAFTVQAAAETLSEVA", "experiment": "Cell-based phage ELISA, recognition of cell surface PSMA by PEGylated ligands on phage", "conditions": "for binding affinity for cell surface PSMA: PEGylated ligand 2 variants, specific/non-specific attachment, with/without PEG4 linker, FIG. 5A; for binding affinity of dual ligand combinations: 2:1 dual ligand combinations on phage, FIG. 5B", "description": "Day 1: The cell-based ELISA was performed as previously described by Watanabe et. al. with the following modifications. Cells were detached with Trypsin-EDTA, resuspended in PBS, and then collected by centrifuging at 1200 rpm for 5 min. The cells were further washed with PBS and then concentrated as in the previous step. The concentration of the cells was adjusted to 4.5×10^6 cells/mL in PBS using a hemocytometer, and 100 μL was aliquoted to specific wells of a 96-well microtiter plate (Maxisorp plates from Nunc). The Maxisorp plates used here have a high protein-binding capacity. Thus, the plates can be used to run assays with either the cells or the phage immobilized in the wells. Next, 50 μL of a 0.15% glutaraldehyde in PBS solution was added to the wells at 4° C., and the solution was gently mixed by pipetting. The ELISA plate was then centrifuged at 1200 rpm for 10 min at 4° C., followed by overnight incubation at 4° C.\nDay 2: The cell solution was gently removed, and the wells were blocked with 200 μL/well of blocking buffer containing 100 mM glycine, 1% gelatin and 0.1% w/v BSA (bovine serum albumin) in PBS. The plate was incubated overnight (˜20-22 h) at room temperature.\nSeparately, phage were prepared before attachment to PEG and PEGylated ligands. Phage (10 nM in 100 μL of PBS) and 1 μL of K14-alkyne (525 μM in water) were thoroughly mixed by pipetting ˜25 times. For phage wrapped with PEGylated ligands, phage were mixed with 0.75 μL of K14-Cys (525 μM in water). For mixed wrapping on the phage surface, 0.5 μL of K14-alkyne was pre-mixed with 0.75 μL of K14-Cys, and then mixed with 100 μL of 10 nM phage. The solution was shaken at room temperature for 15 min on an orbital shaker. Next, 2 μL of PEGylated ligand (625 μM in water) was added to the appropriate wells. For the dual ligand combinations, the PEGylated ligands were pre-mixed in the desired ratio (a 2:1 molar ratio for example), and then 2 μL of the mixture was added to the appropriate wells. The solutions were gently mixed by pipetting, and incubated overnight at 4° C.\nDay 3: Next, the click reaction was performed, as previously described, but with the following modifications. To buffer the pH, triethylammonium acetate was added to a final concentration of 50 mM, followed by the addition of 1.5 μL of 1 mM azide-functionalized PEG. The solutions were mixed by pipetting. Next, ascorbic acid was added to a final concentration of 1 mM and the solutions were mixed by gently pipetting. Then, copper sulfate was added to a final concentration of 1.5 mM, followed by pipetting to mix the solutions. Water was added to the other wells to maintain consistent phage concentrations. The plate was incubated at room temperature for 30 min.\nThe wells of the ELISA plate were then incubated with the phage samples. The blocking buffer was removed and the wells were gently washed two times with PBS. Next, the phage solution was added to the respective wells and incubated for 45 min. The phage solution was removed, and the wells were washed three times with 300 μL/well of wash buffer PT (0.05% Tween-20 in PBS), once with PBS, and then incubated with horseradish peroxidase-conjugated anti-M13 antibody (100 μL/well, 1:5000 dilution in PBS) for 40 min. The wells were washed three times with PT and once with PBS. The plate was then developed by incubating with HRP substrate solution (100 μL/well; 1 mg/mL o-phenylenediamine dihydrochloride and 0.02% w/v H2O2) in citric acid buffer (50 mM citric acid, 50 mM Na2HPO4, pH 5.0). The HRP activity was measured spectrophotometrically at 450 nm using a microtiter plate reader (Bio-Tek). The absorbance at 630 nm was subtracted from the absorbance at 450 nm to eliminate background."}, "[1]": {"experiment": "Dynamic light scattering (DLS) size measurement", "assay_type": "physicochemical", "description": "For determination of size, 1 mL of each sample was measured at the same concentration as used for the biological assay. Each sample was measured at least three times at 25° C., with each individual size measurement being the average of 10 runs."}, "PSMA": {"target": "T2, PSMA (Homo sapiens, UniProt Q04609)", "T2 construct": "The effective detection of PSMA shed by LNCaP cells, in androgen sensitive and androgen independent cells; endogenous in cells; host or cells: culture supernatant of LNCaP and LNCaP CSS cells", "T2 sequence (Q04609 whole entry)": "as above", "conditions": "genetically encoded, phage-displayed ligands [4,10]; cited from earlier work"}}, "note": "“Also recorded” adds a separate entry of the source. Ends that are not written are not given here. * marks the point of attachment. Pent4ynoyl = C#CCCC(=O)*", "data": [{"substance": "P100SP-2: PEG100, specific attachment to ligand 2; bioconjugated to phage wrapped with K14-Cys (SECVEVFQNSCDW-NH2; not fully specified; cysteine pairing not given here; also: specific N-terminal attachment to Mal-PEG100 via triazole)", "values": [{"measurement": "binding affinity for cell surface PSMA", "setting": "PSMA on LNCaP cells", "value": "higher binding affinity for cell surface PSMA than P100NSP-2"}]}, {"substance": "K14-Cys: oligolysine (K14) peptide with cysteine, wraps the phage, SEQ ID NO:2 (KKKKKKKKKKKKKKC; not fully specified (C-terminus))", "values": [{"measurement": "average cross-sectional diameter", "setting": "[1]; DLS backscatter mode, scattering angle 173°, FIG. 3A", "value": 50.0, "unit": "nm"}]}, {"substance": "P100SP-P4-2+P100SP-P4-1: phage wrapped with dual ligand combination in a 2:1 ratio, specific attachment with PEG4 linker (peptide 1 SECVEVFQNSCDW-NH2; peptide 2 CALCEFLG-NH2; not fully specified (N-terminus); cysteine pairing not given here; also: mixture of two PEG100 conjugates (ligand 2 and ligand 1, 2:1) with PEG4 linker, specific N-terminal triazole attachment)", "values": [{"measurement": "binding affinity of dual ligand combinations", "setting": "PSMA on LNCaP cells; LNCaP cells", "value": "significant increase in binding affinity"}]}, {"substance": "PEGylated oligolysine: K14-alkyne pre-conjugated to azide PEG7, 22 or 45 by click reaction, then applied to phage (Pent4ynoyl-KKKKKKKKKKKKKK-NH2; also: alkyne click-conjugated (triazole) to azide PEG7, 22 or 45)", "values": [{"measurement": "change in the cross-sectional diameter of the treated phage", "setting": "[1]; DLS, phage treated with pre-formed PEGylated oligolysine (data not shown)", "value": "no significant change"}]}, {"substance": "P100NSP-2: PEG100, non-specific attachment to ligand 2; bioconjugated to phage wrapped with K14-Cys (SECVEVFQNSCDW-NH2; not fully specified (N-terminus); cysteine pairing not given here; also: PEG100 attached non-specifically)", "values": [{"measurement": "binding affinity for LNCaP cells", "setting": "PSMA on LNCaP cells; phage wrapped with K14-Cys and individual PEGylated ligand, FIG. 14", "value": "higher affinity for LNCaP cells compared to P100NSP-1"}]}, {"substance": "P100NSP-P4-2+P100NSP-P4-1: phage wrapped with dual ligand combination, non-specific attachment with PEG4 linker (peptide 1 SECVEVFQNSCDW-NH2; peptide 2 CALCEFLG-NH2; not fully specified (N-terminus); cysteine pairing not given here; also: PEG100 non-specific attachment with PEG4 linker)", "values": [{"measurement": "binding affinity of dual ligand combinations", "setting": "PSMA on LNCaP cells; LNCaP cells", "value": "drop in affinity; also recorded: affinity equivalent to P100NSP-P4-2"}]}, {"substance": "P100NSP-2+P100NSP-1: phage wrapped with 2:1 dual ligand combination of P100NSP-2 and P100NSP-1 (peptide 1 SECVEVFQNSCDW; peptide 2 CALCEFLG)", "values": [{"measurement": "binding affinity of dual ligand combinations", "setting": "PSMA on LNCaP cells; LNCaP cells", "value": "only a modest improvement"}, {"measurement": "recognition of PSMA on LNCaP cells", "setting": "PSMA on LNCaP cells; different ratios of the two PEGylated, phage-wrapped ligands, FIG. 4", "value": "maximize the recognition of PSMA on LNCaP cells"}]}, {"substance": "SECVEVFQNSCDW [ligand-2]", "values": [{"measurement": "higher affinity to PSMA than ligand-1", "setting": "PSMA", "value": "> 100", "unit": "fold"}]}, {"substance": "K14-alkyne: alkyne-functionalized oligolysine (K14) peptide that wraps the phage, SEQ ID NO:1 (Pent4ynoyl-KKKKKKKKKKKKKK-NH2; SMILES C#CCCC(=O)N[C@@H](CCCCN)C(=O)N[C@@H](CCCCN)C(=O)N[C@@H](CCCCN)C(=O)N[C@@H](CCCCN)C(=O)N[C@@H](CCCCN)C(=O)N[C@@H](CCCCN)C(=O)N[C@@H](CCCCN)C(=O)N[C@@H](CCCCN)C(=O)N[C@@H](CCCCN)C(=O)N[C@@H](CCCCN)C(=O)N[C@@H](CCCCN)C(=O)N[C@@H](CCCCN)C(=O)N[C@@H](CCCCN)C(=O)N[C@@H](CCCCN)C(N)=O)", "values": [{"measurement": "PSMA recognition / binding affinity with PEG spacers", "setting": "PSMA on LNCaP cells; dual ligand combination P100SP-P4-2+P100SP-P4-1 with or without spacers, LNCaP cells, FIG. 6", "value": "no effect on binding affinity"}]}, {"substance": "P100SP-P4-2: PEG100, specific attachment, PEG4 linker, ligand 2; on phage wrapped with K14-Cys (SECVEVFQNSCDW-NH2; not fully specified (N-terminus); cysteine pairing not given here; also: PEG100, specific attachment, PEG4 linker)", "values": [{"measurement": "binding affinity for cell surface PSMA", "setting": "PSMA on LNCaP cells", "value": "most effective architecture"}, {"measurement": "increase in cross-sectional diameter", "setting": "[1]; DLS backscatter mode, relative to previous wrapping step, FIGS. 3A-3B", "value": 10, "unit": "nm"}]}]}
